This is an account of results in patent publication US20240301051A1 (BEIGENE SWITZERLAND, published 2024).

For one experiment, the target named is T1, human claudin 9 (CLDN9) (human, UniProt O95484 1-217).
T1 construct: also called human CLDN9
T1 sequence: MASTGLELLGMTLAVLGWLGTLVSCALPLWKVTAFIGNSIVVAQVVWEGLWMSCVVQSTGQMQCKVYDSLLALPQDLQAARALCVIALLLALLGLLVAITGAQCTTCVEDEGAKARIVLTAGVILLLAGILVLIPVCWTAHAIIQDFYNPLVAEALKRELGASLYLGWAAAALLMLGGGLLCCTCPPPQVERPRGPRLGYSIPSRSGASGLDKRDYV
The experiment in a line: flow cytometry on HEK293T/human CLDN9 cells (non-specific binding validation). (In general: Flow cytometry measures light scatter and fluorescence of single cells or particles in a stream.)

In another experiment the target is T2, human claudin 6 (CLDN6) (human, UniProt P56747 1-220).
T2 construct: also called human CLDN6; hCLDN6
T2 sequence: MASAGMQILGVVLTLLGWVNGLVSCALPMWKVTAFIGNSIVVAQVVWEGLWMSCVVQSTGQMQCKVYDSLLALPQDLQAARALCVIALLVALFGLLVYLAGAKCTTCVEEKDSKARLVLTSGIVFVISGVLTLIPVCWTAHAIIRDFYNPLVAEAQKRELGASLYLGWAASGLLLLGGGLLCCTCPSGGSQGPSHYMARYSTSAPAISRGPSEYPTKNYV
As to the kind of experiment: flow cytometry on HEK293T/human CLDN6 cells. On the procedure:
For affinity determination, CLDN6 over-expressing HEK293T cells and cancer cell line PA-1 which express high levels of human CLDN6 were used to evaluate the binding activity of BG87P related engineering variants. Live cells were seeded in 96-well plate, and were incubated with a series of dilutions of chBG87P and engineered variants thereof. Goat anti-human IgG was used as second antibody to detect antibody binding to the cell surface. EC50 values for dose-dependent binding to CLDN6 expressing cell lines were determined by fitting the dose-response data to the four-parameter logistic model with GraphPad Prism. Cell binding activity of 1st round of BG87P humanization variants against HEK293T/human CLDN6 were compared to chBG87P and shown in FIG. 1A.

B1: BG87P-34 (antibody, V domains shown)
VH: EVQLQESGGGLVQPGGSLRLSCAASGYSFSDYHINWVRQAPGKGLEWVGYIYPGSGHTKYNEKFKGRFTISRDTSSNTAYLQMNSLRAEDTAVYYCARSGIYHYVSSYYFDHWGQGTLVTVSS
VL: DIQMTQSPSSLSASVGDRVTITCKASQDAGSAVAWYQQKPGKAPKLLIYWASTRHTGVPSRFSGSGSGTDFTLTISSLQPEDFATYYCQQYSSYTFGGGTKLEIK
notes: Final lead clone, framework IGHV3-23 and IGKV1-39; also called BG87-34
On to B1, for which the binding result with human claudin 9 (CLDN9) is given as “no binding”.

B2: BG87P-33 (antibody, V domains shown)
VH: EVQLQESGGGLVQPGGSLRLSCAASGYSFTDYHINWVRQAPGKGLEWVSYIYPGSGHTKYNEKFKGRFTISRDTSKNTAYLQMNSLRAEDTAVYYCARSGIYHYVSSYYFDHWGQGTLVTVSS
VL: DIQMTQSPSTLSASVGDRVTITCKASQDAGSAVAWYQQKPGKAPKLLIYWASTRHTGVPSRFSGSGSGTEFTLTISSLQPDDFATYYCQQYSSYTFGGGTKVEIK
notes: Framework-swapped variant; also called BG87-33
The EC50 (read off the curve) is the concentration needed to bring the measured effect to its halfway point. A low value points to a more potent agent. On to B2, for which the “EC50 (read off the curve)” value with human claudin 6 (CLDN6) is around 30 nM.
